Assay results taken from US20230357354A1, “CD38-BINDING CD31 PEPTIDES AND USES THEREOF” (ENCEFA, priority 2020, published 2023).

Target: recombinant His-tagged CD38 (Homo sapiens, UniProt P28907)
Assay: Pepscan-based ELISA of His-tagged CD38 on CD31 peptide arrays
Assay type: binding
Conditions: for Value (binding intensity of His-tagged CD38), LOOP7 conformational peptide array: mimic type LOOP7 (single loop, mP2 CLIPS); for Value (binding intensity of His-tagged CD38), LOOP7 conformational peptide array / Value (binding intensity of His-tagged CD38), LOOP15 conformational peptide array / Value (binding intensity of His-tagged CD38), BET conformational peptide array: sample with the highest signal; for Value (binding intensity of His-tagged CD38), LIN15 linear peptide array: mimic type LIN15, sample with the highest signal (His-tagged CD38 9 or 20 µg/mL); for Value (binding intensity of His-tagged CD38), LOOP15 conformational peptide array: mimic type LOOP15 (single loop, mP2 CLIPS); for Value (binding intensity of His-tagged CD38), BET conformational peptide array: mimic type BET (β-turn mimic, mP2 CLIPS)
Excerpt: Different sets of sCD31 peptides were synthesized according to the following designs. Note that actual order of peptides on mini-cards in some was randomized. • Set #1 • Mimic type: linear • Label: LIN15 • Linear peptides of 15 consecutive amino acid residues in length, derived from the target sequence of sCD31 with an offset of […]. • Set #2 • Mimic type: single loop (mP2 CLIPS) • Label: LOOP7 • Constrained peptides of 9 amino acid residues in length. On positions 2-8 are incorporated 7 consecutive amino acid residues derived from the target sequence of sCD31 with an offset of 1.3 residues. Cys residues were inserted on positions 1 and 9 and joined by mP2 CLIPS in order to create a loop mimic. Native Cys residues, if present, were replaced by Ser residues. • Set #3 • Mimic type: single loop, (mP2 CLIPS) • Label: LOOP15 • Constrained peptides of 17 amino acid residues in length. On positions 2-16 are incorporated 15 consecutive amino acid residues derived from the target sequence of sCD31 with an offset of […]. Cys residues were inserted on positions 1 and 17 and joined by mP2 CLIPS in order to create a loop mimic. Native Cys residues, if present, were replaced by Ser residues. • Set #4 • Mimic type: β-turn peptide mimics (mP2 CLIPS) • Label: BET • β-turn peptide mimics of 22 amino acid residues in length. On positions 2-21 are incorporated 20 consecutive amino acid residues derived from the target sequence of sCD31 with an offset of 1.3 residues. Residues on positions 11 and 12 are replaced by a Pro-Gly motif in order to induce the β-turn formation. Cys residues were inserted on positions 1 and 22 and joined by mP2 CLIPS in order to stabilize the mimic. Native Cys residues, if present, were replaced by Ser residues.
To reconstruct epitopes of sCD31, a library of peptide-based peptide mimics was synthesized using Fmoc-based solid-phase peptide synthesis. An amino functionalized polypropylene support was obtained by grafting with a hydrophilic polymer formulation, followed by reaction with t-butyloxycarbonyl-hexamethylenediamine (BocHMDA) using dicyclohexylcarbodiimide (DCC) with N-hydroxybenzotriazole (HOBt) and subsequent cleavage of the Boc-groups using trifluoroacetic acid (TFA).
Standard Fmoc-peptide synthesis was used to synthesize peptides on the amino-functionalized solid support by custom modified JANUS liquid handling stations (Perkin Elmer).
Synthesis of structural mimics was done using CLIPS technology. CLIPS technology allows to structure peptides into single loops, double loops, triple loops, sheet-like folds, helix-like folds, and combinations thereof. CLIPS templates are coupled to cysteine residues. The side-chains of multiple cysteines in the peptides are coupled to one or two CLIPS templates. For example, a 0.5 mM solution of the P2 CLIPS (2,6-bis(bromomethyl)pyridine) is dissolved in ammonium bicarbonate (20 mM, pH 7.8)/acetonitrile (1:3, v/v). This solution is added onto the peptide arrays. The CLIPS template binds to side-chains of two cysteines as present in the solid-phase bound peptides of the peptide-arrays (455 wells plate with 3-µL wells). The peptide arrays are gently shaken in the solution for 30 to 60 minutes while completely covered in solution.
Finally, the peptide arrays are washed extensively with excess of H2O and sonicated in disrupt-buffer containing 1% SDS / 0.1 % 2,2′-(ethylenedioxy)diethanethiol in PBS (pH 7.2) at 70° C. for 30 minutes, followed by sonication in H2O for another 45 minutes.
The binding of the sample (recombinant His-tagged CD38; 9 µg/mL and 20 µg/mL) to each of the synthesized peptides was tested in a pepscan-based ELISA. The peptide arrays were incubated with primary sample solution (overnight at 4° C.). […]

Row | Substance | Value (binding intensity of His-tagged CD38), LOOP7 conformational peptide array | Value (binding intensity of His-tagged CD38), LIN15 linear peptide array | further results
1 | 5 (CSTESYFIC; Human sCD31 peptide) [compound 5] | 668 mAU |  | 
2 | 6 (NSRDQNFVILEFPVE; Human sCD31 peptide) [compound 6] |  | 1230 mAU | 
3 | 9 (CRDQNFVILEFPVEEQC; Human sCD31 peptide) [compound 9] |  |  | Value (binding intensity of His-tagged CD38), LOOP15 conformational peptide array: 1110 mAU
4 | 10 (CMVKLKREKNPGDQNFVILEFC; Human sCD31 peptide) [compound 10] |  |  | Value (binding intensity of His-tagged CD38), BET conformational peptide array: 1497 mAU
5 | 13 (CVESSRISKVPGIVVNITELFC; Human sCD31 peptide) [compound 13] |  |  | Value (binding intensity of His-tagged CD38), BET conformational peptide array: 943 mAU
6 | 14 (CPPANFTIQKPGTIVSQTQDFC; Human sCD31 peptide) [compound 14] |  |  | Value (binding intensity of His-tagged CD38), BET conformational peptide array: 739 mAU
7 | 16 (CSEVLRVKVIPGVDEVQISILC; Human CD31 peptide) [compound 16] |  |  | Value (binding intensity of His-tagged CD38), BET conformational peptide array: 649 mAU
8 | 30 (KPQHQMLFYKDDVLF) [compound 30] |  | 355 mAU | 
9 | 32 (QHQMLFYKDDVLFYN) [compound 32] |  | 460 mAU | 
10 | 33 (HQMLFYKDDVLFYNI) [compound 33] |  | 441 mAU | 
11 | 36 (MLFYKDDVLFYNISS) [compound 36] |  | 451 mAU | 
12 | 38 (LFYKDDVLFYNISSM) [compound 38] |  | 383 mAU | 
13 | 74 (KREKNSRDQNFVILE) [compound 74] |  | 440 mAU | 
14 | 75 (REKNSRDQNFVILEF) [compound 75] |  | 453 mAU | 
15 | 77 (KNSRDQNFVILEFPV) [compound 77] |  | 502 mAU | 
16 | 78 (RDQNFVILEFPVEEQ) [compound 78] |  | 1021 mAU | 
17 | 80 (DQNFVILEFPVEEQD) [compound 80] |  | 963 mAU | 
18 | 83 (NFVILEFPVEEQDRV) [compound 83] |  | 631 mAU | 
19 | 100 (SSRISKVSSIVVNIT) [compound 100] |  | 168 mAU | 
20 | 101 (RISKVSSIVVNITEL) [compound 101] |  | 572 mAU | 
21 | 102 (ISKVSSIVVNITELF) [compound 102] |  | 642 mAU | 
22 | 104 (KVSSIVVNITELFSK) [compound 104] |  | 155 mAU | 
23 | 120 (NSNDPAVFKDNPTED) [compound 120] |  | 421 mAU | 

Row | Substance | Value (binding intensity of His-tagged CD38), LOOP7 conformational peptide array | Value (binding intensity of His-tagged CD38), LIN15 linear peptide array | further results
24 | 121 (SNDPAVFKDNPTEDV) [compound 121] |  | 410 mAU | 
25 | 122 (DPAVFKDNPTEDVEY) [compound 122] |  | 402 mAU | 
26 | 123 (PAVFKDNPTEDVEYQ) [compound 123] |  | 333 mAU | 
27 | 124 (VFKDNPTEDVEYQCV) [compound 124] |  | 303 mAU | 
28 | 164 (CNSRDQNFVILEFPVEC) [compound 164] |  |  | Value (binding intensity of His-tagged CD38), LOOP15 conformational peptide array: 965 mAU
29 | 167 (CEDVEYQSC) [compound 167] | 804 mAU |  | 
30 | 168 (KQKASKEQEGEYYCT) [compound 168] |  | 337 mAU | 
31 | 169 (QKASKEQEGEYYCTA) [compound 169] |  | 316 mAU | 
32 | 170 (ASKEQEGEYYCTAFN) [compound 170] |  | 400 mAU | 
33 | 171 (SKEQEGEYYCTAFNR) [compound 171] |  | 454 mAU | 
34 | 172 (EQEGEYYCTAFNRAN) [compound 172] |  | 340 mAU | 
35 | 173 (CNLTLQSFC) [compound 173] | 370 mAU |  | 
36 | 174 (CTLQSFADC) [compound 174] | 427 mAU |  | 
37 | 175 (CLQSFADVC) [compound 175] | 561 mAU |  | 
38 | 176 (CQSFADVSC) [compound 176] | 413 mAU |  | 
39 | 177 (CSFADVSTC) [compound 177] | 390 mAU |  | 
40 | 178 (CMLFYKDDC) [compound 178] | 542 mAU |  | 
41 | 179 (CLFYKDDVC) [compound 179] | 604 mAU |  | 
42 | 180 (CYKDDVLFC) [compound 180] | 585 mAU |  | 
43 | 181 (CKDDVLFYC) [compound 181] | 579 mAU |  | 
44 | 182 (CDDVLFYNC) [compound 182] | 702 mAU |  | 
45 | 183 (CVLFYNISC) [compound 183] | 502 mAU |  | 
46 | 184 (CKSTESYFC) [compound 184] | 339 mAU |  | 

Row | Substance | Value (binding intensity of His-tagged CD38), LOOP7 conformational peptide array | Value (binding intensity of His-tagged CD38), LIN15 linear peptide array | further results
47 | 185 (CTESYFIPC) [compound 185] | 549 mAU |  | 
48 | 186 (CSYFIPEVC) [compound 186] | 400 mAU |  | 
49 | 187 (CYFIPEVRC) [compound 187] | 523 mAU |  | 
50 | 188 (CFIPEVRIC) [compound 188] | 414 mAU |  | 
51 | 189 (CEVRIYDSC) [compound 189] | 642 mAU |  | 
52 | 190 (CVRIYDSGC) [compound 190] | 479 mAU |  | 
53 | 191 (CRIYDSGTC) [compound 191] | 395 mAU |  | 
54 | 192 (CTAEYQVLC) [compound 192] | 492 mAU |  | 
55 | 193 (CAEYQVLVC) [compound 193] | 508 mAU |  | 
56 | 194 (CEYQVLVEC) [compound 194] | 651 mAU |  | 
57 | 195 (CDQNFVILC) [compound 195] | 628 mAU |  | 
58 | 196 (CQNFVILEC) [compound 196] | 942 mAU |  | 
59 | 197 (CVILEFPVC) [compound 197] | 527 mAU |  | 
60 | 198 (CILEFPVEC) [compound 198] | 537 mAU |  | 
61 | 199 (CLAQEFPEC) [compound 199] | 412 mAU |  | 
62 | 200 (CAQEFPEIC) [compound 200] | 429 mAU |  | 
63 | 201 (CQEFPEIIC) [compound 201] | 476 mAU |  | 
64 | 202 (CFPEIIIQC) [compound 202] | 596 mAU |  | 
65 | 203 (CSSIVVNIC) [compound 203] | 364 mAU |  | 
66 | 204 (CSIVVNITC) [compound 204] | 387 mAU |  | 
67 | 205 (CIVVNITEC) [compound 205] | 630 mAU |  | 
